A short description of the data set: amyloid nucleation score (Sup35N fusion, yeast selection) (log enrichment); library NNK2; higher = more nucleation; inactive = no reads after selection. In a few lines: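 Libraries of peptides of 20 random codons fused to Sup35N were expressed in psi-negative yeast and induced 24 hours with 100 μM copper sulfate. Selection was 7 days at 30°C on medium lacking adenine and uracil, and plasmid inserts were Illumina-sequenced before and after selection. Nucleation score is the DiMSum log enrichment of output over input reads, centred on the mode score of non-aggregating sequences, and sequences with under 100 input reads were left out.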

Results on 139 substances are retold here after the supplement of paper PMC12042874.

± gives the uncertainty stated by the source.

The substance CMTTYTNLIHIPIQVSTPKR returned an amyloid nucleation score of 7.51 ± 0.043.
As for PIITFNTI, the figure is -0.637 ± 1.1; as for SLTYRYVHVLC, 5.86 ± 0.04; as for LINCSSTLITIYSRYNAMYF, 5.415 ± 0.049.
Take FSVLWEMDRLVHG: the amyloid nucleation score worked out at 0.95 ± 0.29.
The value for FLCTNGGPLALSNGWVTSGE was 0.274 ± 0.62; that for FTIHWRVGCTQWLEAVIGYM was 4.07 ± 0.1.
The value for MLYLCMFTERVDDNTFALYR was “inactive”.
For DRESRFLYVYHSRY, the amyloid nucleation score entry is “inactive”.
With DDVMMILGNNTSYVLFNMPC, the amyloid nucleation score result is “inactive”.
As for EFFCAHLRADLVLKKNRVVF, the figure is -1.05 ± 0.78.
The value for ANPWDRSFIVKVCRSDVVRV was 0.246 ± 0.38.
In turn, DYMDAYGYINRGDPGLIVEV returned an amyloid nucleation score of -0.013 ± 0.53.
In the case of ATVRFWWKFVYACGMAWWWV, the amyloid nucleation score turned out to be 0.001 ± 0.55.
The value for GLQYQYSGLWVR was 0.236 ± 0.44; that for ESRIYYVKQYSCLSTLTMVR was -0.283 ± 0.35; that for YRILSNASWTFAVVQSCNPY was 5.789 ± 0.047.
The value for VFTSGSRCHPWLE was 1.45 ± 0.27; that for RSMSRRGFLCLHR was 0.948 ± 0.67; that for DSCFRVLHRTGFVFMSWLII was 4.82 ± 0.082.
The value for RLLHYAFAFTARV was 3.15 ± 0.068.
As to SFIVRRFSSCLHLFGDSEGY, the amyloid nucleation score is -0.098 ± 0.41.
VCYMGTRCGWNSRARVFWGS gave an amyloid nucleation score of 2.69 ± 0.11.
In turn, GGGGCSSDFTQKTPPGQAKA displayed an amyloid nucleation score of -0.102 ± 0.36.
KKTSEKLEGYNVNISVLRGY had an amyloid nucleation score of 2.59 ± 0.23.
For the substance CIIVISFLTITWKCAEPELQ, the amyloid nucleation score entry is “inactive”.
For the substance DISVLSLQYMS, the amyloid nucleation score was -0.105 ± 0.8.
As for TRAHSED, the figure is 0.49 ± 0.32; as for NMGLFGGILVFVMWLIMCSL, 2.31 ± 0.15; as for YYLPLGYDWPWSYSKCSNTR, 4.04 ± 0.072.
As for NRISGLGMSSKGKRGKVMLK, the figure is 0.493 ± 0.46; as for RGVGYYRGSICTWFNWAAMW, 1.83 ± 0.16.
Substance GWSITGSWFHNMAILLICFR gave an amyloid nucleation score of 3.38 ± 0.075.
The value for CWGNGGQKRLFVLFSFAY was 0.063 ± 1.1; that for RSHMYSGYIYLIQKTFLREV was -1.29 ± 0.26; that for PYQAIHYVNRCGFWLTASCA was 0.36 ± 0.62.
With MVLASAAKVMEVLNSKQFT, the amyloid nucleation score stood at 1.42 ± 0.13.
HCLGRLVASWNPQWEFHRRT displayed an amyloid nucleation score of 0.103 ± 0.38.
The substance SIVLSDGLGS gave an amyloid nucleation score of 0.044 ± 1.1.
YSMWGYCISPNKHVYFTHGR registered an amyloid nucleation score of -0.421 ± 0.78.
LDRMSRIRGSCRYACVL showed an amyloid nucleation score of 1.15 ± 0.41.
As for FFESCRLVNFELLVLSFFIG, the figure is -0.527 ± 0.28; as for VTNCLTIWAFMGSRRCWKAP, 3.62 ± 0.11; as for MHCYSIGFRLMRSANMLSCY, 0.394 ± 0.33.
The value for WWYRLLWDKSCL was -1.06 ± 0.49; that for DLRLTSHIRSFIFAGVPVLF was -1.65 ± 0.49.
Substance CNKESFSMI gave an amyloid nucleation score of -0.791 ± 0.55.
As for IKTYNGGSWGALSCIALRLI, the figure is -1.39 ± 0.78; as for HNEPG, -1.2 ± 0.75.
As for GHVHQNLMRLVNFSKKSTSL, the figure is 4.95 ± 0.055; as for YICMLLDKPRFLSRSSRSLV, “inactive”.
As for RTEDPKTDYVKRGKRKWRVW, the amyloid nucleation score is -0.129 ± 1.1.
NMSCKFSNPWNWFD registered an amyloid nucleation score of -0.11 ± 0.39.
The value for NCDVGYLCLEKFNIPRRSVL was -0.805 ± 0.64; that for YGLWVYMNWLVSLRSLLTRI was “inactive”.
The value for MPPHSVSVITNSHF was “inactive”.
As for VVYASRLC, the figure is 0.681 ± 0.35; as for WRSYDMYSSWSIYVMAMTIS, -1.11 ± 0.53; as for KFYVCCATCGCDKINELPVT, 8.088 ± 0.06.
In the case of MIHQIELNDIGWVLTTFCNE, the amyloid nucleation score is -0.536 ± 1.
Turning to KVSKTCY, the amyloid nucleation score turned out to be 0.497 ± 0.24.
The substance TSRDSRAL had an amyloid nucleation score of -0.742 ± 1.1.
Turning to FSYQSHY, the amyloid nucleation score is 0.466 ± 0.23.
As for TFLGLS, the amyloid nucleation score amounted to 0.658 ± 0.26.
With WCKQGVGCDLGAMVELSKGG, the amyloid nucleation score stood at 1.22 ± 0.28.
For the substance YGRSTHPGSRSF, the amyloid nucleation score was -1.25 ± 0.63.
For the substance SFAHEDWHTLFLL, the amyloid nucleation score was -1.32 ± 0.75.
The value for KSAIVRYQVGRVALEFFAAG was “inactive”; that for SVYPTSGRYYLYRSLIFVGD was -0.57 ± 0.78.
The value for FKVTTFYHGLSSMKDVASSY was -0.95 ± 0.45; that for FTLKINVPETGTIVLPELGS was 0.235 ± 0.48.
For the substance ASMYLNSSH, the amyloid nucleation score entry was “inactive”.
As for PPLYSFVQYMRGFANNVISG, the figure is 0.227 ± 0.49.
As for TDNVIMVERDRASKVCERKG, the figure is 0.433 ± 0.54; as for WVFKCVSNKERNYISCACSM, 4.79 ± 0.063; as for GWGFFIDSYQHGLLM, -1.27 ± 0.54.
As for WGVCSQGYNVRIRVVARQKF, the entry is “inactive”; as for RSFGSYCAGEGTRSPRDSRG, 0.172 ± 0.65; as for FFQQRCYVVFAIMTSSGADD, 0.864 ± 0.12.
As to RNPNVEVCRKQFRVGCSLAN, the amyloid nucleation score is -0.931 ± 0.39.
The value for GWMCMPAQGAKDNHLLGYLM was -0.533 ± 0.55; that for ILLLFVPSDFRNICFE was -0.532 ± 0.29; that for YYVAIVSLWSGVKYVMVKFA was -1.07 ± 0.78.
YRNCLPMGGNALS had an amyloid nucleation score of -0.964 ± 1.1.
As for YMLTKYRYS, the figure is 0.734 ± 0.81; as for GRFVSVKHYS, “inactive”.
Substance WYSYRL gave an amyloid nucleation score of -0.11 ± 0.46.
Substance DDIAVCWNCFVRLILMMWED came in with an amyloid nucleation score of 1.57 ± 0.42.
The value for GCDVDKVNGRRVVYPDTEGL was 0.697 ± 0.81; that for ILCYMFVYYAYA was 0.016 ± 1.1.
Substance FGRGSRLLLCAGFPLLNSYA displayed an amyloid nucleation score of -0.356 ± 1.1.
For MNVDGNFWAGVELTYIEGSS, the amyloid nucleation score is -0.587 ± 0.79.
As for VSVVDGSILMNLCLRLVLRR, the figure is -0.068 ± 0.79; as for GTTSCISDLQWMGYIVKL, 0.039 ± 0.46; as for LYYMHNE, -0.652 ± 0.64.
The substance SISWVVYSTV gave an amyloid nucleation score of 2.1 ± 0.084.
Substance LLFWLIRETRSLLSIYLVGT returned an amyloid nucleation score of 0.198 ± 0.46.
In turn, IEMLSNY came in with an amyloid nucleation score of -0.575 ± 0.49.
In the case of AALGTDMSNWVHSRLNQERR, the amyloid nucleation score was determined as 0.433 ± 0.45.
The value for YRLNVNKSSNQGV was -0.712 ± 0.45.
The value for YVLELKG was 2.75 ± 0.062.
Substance SLISKEFVGLVGGET showed an amyloid nucleation score of -0.388 ± 0.25.
As for LHTWSVSLVYYNVFYLSSRA, the figure is -0.417 ± 1.1; as for YSKTLERVDSSVD, 1.26 ± 0.38; as for CFSLYSCKDSINDMLKRSQN, -1.12 ± 1.1.
The value for SVYRGASKVSRCRNVKTGR was 0.132 ± 0.32; that for PVIYSF was 7.115 ± 0.031; that for AEYKRGKEGSPLAIWWQLDP was 2.34 ± 0.13.
RLIRFSIMEV returned an amyloid nucleation score of -0.291 ± 0.54.
As for VFRVCEMDSSLFHYGLALDR, the figure is 0.521 ± 0.3; as for GTVLMRFGGCLFFVMSRQNC, 1.89 ± 0.42.
The value for KVRLSDIPSLAMICFKRDIN was “inactive”; that for LDYFNYCSSLGFHMVSVVYV was “inactive”; that for MAYWESTVIYYIDWEWDSLV was -1.16 ± 0.39.
The value for FQMMCSIDFNKCLPWLFS was “inactive”; that for SPLRALLTHVWRKQHTYFSN was 3.14 ± 0.08; that for VLYFLLLFFRD was “inactive”.
Turning to IYACGYGLFYEYHTCSMCEI, the amyloid nucleation score is -0.977 ± 0.34.
The value for NLTVCMLDSPGYQKDCGMRL was 1.54 ± 0.27.
As for LVVLNYGVIHNMNSWPWRWG, the figure is 9.861 ± 0.047; as for VASYAIGSFYADVACVEPRY, 0.835 ± 0.43; as for YSRTQENNAGLSYIACTGRR, 0.168 ± 0.56.
As for RIEIRQSLEDRLRAVSMAET, the figure is 1.64 ± 0.3.
RGGVVNCRFRAHFMWL gave an amyloid nucleation score of 5.779 ± 0.041.
SMSSTSFSQWSMAWLEGRMA returned an amyloid nucleation score of 2.93 ± 0.078.
NREIGISWEGWMMLKILQYK: the amyloid nucleation score result was “inactive”.
As for NVGYWYCLD, the figure is 8.808 ± 0.033; as for GVLNAVHCQVYWL, 7.869 ± 0.035.
The substance RWCQE gave an amyloid nucleation score of -0.288 ± 0.53.
The value for SWMAQCLPRYTHIADQSDGS was 0.238 ± 0.17; that for NAIRFLVMLVGTWF was 0.25 ± 0.24; that for RMNWGSNFLEE was -0.663 ± 0.32.
In the case of LFPLHFCNEHIMRLIKKLTG, the amyloid nucleation score turned out to be 0.579 ± 0.8.
As for LCMQSVSGALSPSARRRLCV, the figure is -0.235 ± 1.1; as for ISRYEGRRLKCDGITFGYSG, -0.031 ± 0.23.
As for SFVDMSYRFLVGVRFLVRPS, the entry is “inactive”; as for NTLITRVHHDQLPRLSDLLL, 1.28 ± 0.38; as for AIMGHGLPYGTGLMEVGGAK, 5.13 ± 0.084.
The value for TCDKLGAVVMSLLECVNEAP was 0.205 ± 0.77.
